These results are taken from patent publication US11090322B2, “Anthracycline disulfide intermediates, antibody-drug conjugates and methods” (priority 2014, dated 2021).

The conditions of series [1]: cited from earlier work.
For the next series, the system named is tumor models. As to conditions: cited from earlier work.
For a further series, the system named is SK-BR-3 cells. Nature of the series: In vitro cell proliferation assay (CellTiter-Glo), SK-BR-3 cell viability at 5 days. In kind it is cell-based. The settings on record: SK-BR-3, 5 days, concentrations in μg/ml; FIG. 1 and FIG. 2. The protocol: Generally, the cytotoxic or cytostatic activity of an antibody-drug conjugate (ADC) is measured by: exposing mammalian cells having receptor proteins, e.g. HER2, to the antibody of the ADC in a cell culture medium; culturing the cells for a period from about 6 hours to about 5 days; and measuring cell viability. Cell-based in vitro assays were used to measure viability (proliferation), cytotoxicity, and induction of apoptosis (caspase activation) of the ADC of the invention.
The CellTiter-Glo® Luminescent Cell Viability Assay is a commercially available (Promega Corp., Madison, Wis.), homogeneous assay method based on the recombinant expression of Coleoptera luciferase (U.S. Pat. Nos. 5,583,024; 5,674,713; 5,700,670). This cell proliferation assay determines the number of viable cells in culture based on quantitation of the ATP present, an indicator of metabolically active cells (Crouch et al (1993) J. Immunol. Meth. 160:81-88; U.S. Pat. No. 6,602,677). […]
The homogeneous “add-mix-measure” format results in cell lysis and generation of a luminescent signal proportional to the amount of ATP present. […] Viable cells are reflected in relative luminescence units (RLU). […]
Efficacy of ADC was measured by a cell proliferation assay employing the following protocol ([…] GLO™ Luminescent Cell Viability Assay, Promega Corp. Technical Bulletin TB288; Mendoza et al (2002) Cancer Res. 62:5485-5488): • 1. […]
On the technique in general: Cellular ATP, detected with luciferase, serves as a proxy for viable cell number.

Series [2] concerns MMTV-HER2 Fo5 transgenic mammary tumors. Nature of the series: In vivo tumor growth inhibition, MMTV-HER2 Fo5 transgenic mammary tumor allograft. On the set-up: species or system CRL nu/nu mice. As to conditions: FIG. 5. The protocol: For example, the in vivo efficacy of an anti-HER2 ADC of the invention can be measured by a high expressing HER2 transgenic explant mouse model (Phillips et al (2008) Cancer Res. 68:9280-90). […] Subjects were treated once with ADC at certain dose levels (mg/kg) and placebo buffer control (Vehicle) and monitored over two weeks or more to measure the time to tumor doubling, log cell kill, and tumor shrinkage.
(§1) Tumors were established and allowed to grow to 150-200 mm^3 in volume (as measured using calipers) before a single treatment on day 0. Tumor volume was measured using calipers according to the formula: V (mm^3)=0.5A×B^2, where A and B are the long and short diameters, respectively. […] Data collected from each experimental group (10 mice per group) were expressed as mean±SE.
The Fo5 mouse mammary tumor model was employed to evaluate the in vivo efficacy of antibody-drug conjugates of the invention after single dose intravenous injections, and as described previously (Phillips G D L, Li G M, Dugger D L, et al. Targeting HER2-Positive Breast Cancer with Trastuzumab-DM1, an Antibody-Cytotoxic Drug Conjugate. (2008) Cancer Res. 68:9280-90), incorporated by reference herein. […]

The subject of another series is KPL4 tumor model. Kind of series: In vivo tumor growth inhibition, KPL4 tumor model. Details: species or system scid beige mice. The settings on record: single IV treatment Day 0 at 3 mg/kg; non specific anti-CD33 controls; FIG. 4. As for the experimental part: When tumors reached a mean tumor volume of 100-250 mm3, they were grouped into 9 groups of 8-10 mice each. A single treatment was administered intravenously via the tail vein on Day 0 as follows: (01) Vehicle: Histidine Buffer #8: 20 mM Histidine Acetate, pH 5.5, 240 mM Sucrose, 0.02% PS 20, (02) Thio Hu anti-Her2 7C2 LC K149C-(ethylmaleimide) 0.3 mg/kg 138, (03) Thio Hu anti-Her2 7C2 LC K149C-(ethylmaleimide) 1 mg/kg 138, (04) Thio Hu anti-Her2 7C2 LC K149C-(ethylmaleimide) 3 mg/kg 138, (05) Thio Hu anti-Her2 7C2 LC K149C-(LD-57) 0.3 mg/kg 109, (06) Thio Hu anti-Her2 7C2 LC K149C-(LD-57) 1 mg/kg 109, (07) Thio Hu anti-Her2 7C2 LC K149C-(LD-57) 3 mg/kg 109, (08) Thio Hu Anti-CD33 15G15.3 LC K149C-(ethylmaleimide) 3 mg/kg 139, and (09) Thio Hu anti-CD33 15G15.3 LC K149C-(LD-57) 3 mg/kg 110.
as §1

As for `COc1cccc2c1C(=O)c1c(O)c3c(c(O)c1C2=O)C[C@@](O)(C(=O)CO)C[C@@H]3O[C@H]1C[C@H]2[C@H](O[C@@H]3[C@@H](OC)OCCN32)[C@H](C)O1` [PNU-159682, 3′-deamino-3″,4′-anhydro-[2″(S)-methoxy-3″(R)-oxy-4″-morpholinyl]doxorubicin], the “cytotoxicity in vitro relative to nemorubicin and doxorubicin” value in series [1] is “remarkably more cytotoxic than nemorubicin and doxorubicin”. Besides, the “efficacy in vivo tumor models” value in the series on tumor models is “effective”.

B1: ADC-110 (conjugate)
VH: QVQLVQSGAEVKKPGSSVKVSCKASGGIFSNHAISWVRQAPGQGLEWMGGIIPIFGTANYAQKFQGRVTITADESTSTAFMELSSLRSEDTAVYYCAREWADVFDIWGQGTMVTVSS
VL: EIVLTQSPLSLPVTPGEPASISCRSSQSLLHSNGYNYLDWYLQKPGQSPQLLIYLGVNSVSGVPDRFSGSGSGTDFTLKISRVEAEDVGVYYCMQALQTPWTFGQGTKVEIK
As for B1, the “cell-killing activity (in vitro cell viability versus concentration)” value in the series on SK-BR-3 cells is given as “less activity”. Moreover, the tumor growth inhibition result in series [2] (dosing once IV at 1 mg/kg) is reported as “little tumor growth inhibition”; in series [2] (dosing once IV at 3 mg/kg), “modest tumor growth inhibition”; in the series on KPL4 tumor model it was “little or no tumor growth inhibition”.
